1 substance from article PMC6289460 can be followed below.

The data set deals with ArdK (intact) (Escherichia coli A56-1S (plasmid pA56-1S)). Put plainly: BLI. The note with it: EMSA: 20 mM Tris pH 7.5, 100 mM KCl, 2 mM DTT, 10 mM EDTA, 50 mg/L poly(dI-dC), 20 C, 20 min, 3 fmol probe, 30 pmol protein; BLI: 1x kinetics buffer (Pall …).

On to 107 bp probe upstream of blaIMP-6, for which the Kd amounted to 29.3 nM.
